# Legend:
# [1] = biological target: T1, human protoporphyrinogen IX oxidase (hPPO) (Homo sapiens, UniProt P50336); experiment: fluorescence product-formation time courses showing feedback (product) inhibition; assay type: biochemical
# T1 construct: gene PPOX
# T1 sequence (P50336 1-477): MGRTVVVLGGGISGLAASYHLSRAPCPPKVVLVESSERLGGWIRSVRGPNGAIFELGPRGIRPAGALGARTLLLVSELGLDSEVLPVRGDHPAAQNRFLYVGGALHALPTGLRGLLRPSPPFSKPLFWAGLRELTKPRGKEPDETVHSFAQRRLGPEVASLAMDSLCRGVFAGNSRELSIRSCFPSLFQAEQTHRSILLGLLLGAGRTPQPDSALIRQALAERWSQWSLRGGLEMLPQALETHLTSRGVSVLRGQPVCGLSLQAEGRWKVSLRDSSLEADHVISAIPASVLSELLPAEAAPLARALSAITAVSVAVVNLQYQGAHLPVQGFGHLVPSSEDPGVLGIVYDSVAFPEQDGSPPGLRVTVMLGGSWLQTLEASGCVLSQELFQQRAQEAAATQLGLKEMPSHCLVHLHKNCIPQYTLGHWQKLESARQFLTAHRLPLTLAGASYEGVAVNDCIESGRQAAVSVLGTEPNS
# [2] = substrate: C=Cc1c2[nH]c(c1C)Cc1[nH]c(c(CCC(=O)O)c1C)Cc1[nH]c(c(C)c1CCC(=O)O)Cc1[nH]c(c(C)c1C=C)C2; experiment: purified protein
# [3] = substrate: C=Cc1c2[nH]c(c1C)Cc1[nH]c(c(CCC(=O)O)c1C)Cc1[nH]c(c(C)c1CCC(=O)O)Cc1[nH]c(c(C)c1C=C)C2; experiment: continuous fluorometric enzyme kinetics on purified hPPO (Km); assay type: biochemical, Homo sapiens; details: FAD active site next to FAD; model: R97, L166, R168, G169, V170, F331, L334, M368
molecule,measurement,setting,value
C=CC1=C(C)c2cc3[nH]c(cc4nc(cc5[nH]c(cc1n2)c(C)c5CCC(=O)O)C(CCC(=O)O)=C4C)c(C)c3C=C [protoporphyrin IX],fluorescence product-formation time courses showing feedback (product) inhibitio,[1],The product inhibition phenomenon was obvious at low concentrations of PPO
human protoporphyrinogen IX oxidase (hPPO) (Homo sapiens; L166N) (protein) MGRTVVVLGGGISGLAASYHLSRAPCPPKVVLVESSERLGGWIRSVRGPNGAIFELGPRGIRPAGALGARTLLLVSELGLDSEVLPVRGDHPAAQNRFLYVGGALHALPTGLRGLLRPSPPFSKPLFWAGLRELTKPRGKEPDETVHSFAQRRLGPEVASLAMDSNCRGVFAGNSRELSIRSCFPSLFQAEQTHRSILLGLLLGAGRTPQPDSALIRQALAERWSQWSLRGGLEMLPQALETHLTSRGVSVLRGQPVCGLSLQAEGRWKVSLRDSSLEADHVISAIPASVLSELLPAEAAPLARALSAITAVSVAVVNLQYQGAHLPVQGFGHLVPSSEDPGVLGIVYDSVAFPEQDGSPPGLRVTVMLGGSWLQTLEASGCVLSQELFQQRAQEAAATQLGLKEMPSHCLVHLHKNCIPQYTLGHWQKLESARQFLTAHRLPLTLAGASYEGVAVNDCIESGRQAAVSVLGTEPNS,Km,[2]; FAD substrate ring C,5.13 µM
same,kcat,[2]; FAD substrate ring C,0.0303 ± 0.00217 s⁻¹
same,kcat/Km,[2]; FAD substrate ring C,5830 M⁻¹ s⁻¹
human protoporphyrinogen IX oxidase (hPPO) (Homo sapiens) (protein) MGRTVVVLGGGISGLAASYHLSRAPCPPKVVLVESSERLGGWIRSVRGPNGAIFELGPRGIRPAGALGARTLLLVSELGLDSEVLPVRGDHPAAQNRFLYVGGALHALPTGLRGLLRPSPPFSKPLFWAGLRELTKPRGKEPDETVHSFAQRRLGPEVASLAMDSLCRGVFAGNSRELSIRSCFPSLFQAEQTHRSILLGLLLGAGRTPQPDSALIRQALAERWSQWSLRGGLEMLPQALETHLTSRGVSVLRGQPVCGLSLQAEGRWKVSLRDSSLEADHVISAIPASVLSELLPAEAAPLARALSAITAVSVAVVNLQYQGAHLPVQGFGHLVPSSEDPGVLGIVYDSVAFPEQDGSPPGLRVTVMLGGSWLQTLEASGCVLSQELFQQRAQEAAATQLGLKEMPSHCLVHLHKNCIPQYTLGHWQKLESARQFLTAHRLPLTLAGASYEGVAVNDCIESGRQAAVSVLGTEPNS,Km,[3],2.08 µM
same,kcat,[3],0.0495 ± 0.0025 s⁻¹
same,kcat/Km,[3],23800 M⁻¹ s⁻¹
human protoporphyrinogen IX oxidase (hPPO) (Homo sapiens; F331T) (protein) MGRTVVVLGGGISGLAASYHLSRAPCPPKVVLVESSERLGGWIRSVRGPNGAIFELGPRGIRPAGALGARTLLLVSELGLDSEVLPVRGDHPAAQNRFLYVGGALHALPTGLRGLLRPSPPFSKPLFWAGLRELTKPRGKEPDETVHSFAQRRLGPEVASLAMDSLCRGVFAGNSRELSIRSCFPSLFQAEQTHRSILLGLLLGAGRTPQPDSALIRQALAERWSQWSLRGGLEMLPQALETHLTSRGVSVLRGQPVCGLSLQAEGRWKVSLRDSSLEADHVISAIPASVLSELLPAEAAPLARALSAITAVSVAVVNLQYQGAHLPVQGTGHLVPSSEDPGVLGIVYDSVAFPEQDGSPPGLRVTVMLGGSWLQTLEASGCVLSQELFQQRAQEAAATQLGLKEMPSHCLVHLHKNCIPQYTLGHWQKLESARQFLTAHRLPLTLAGASYEGVAVNDCIESGRQAAVSVLGTEPNS,Km,[2]; FAD substrate ring D,3.02 µM
same,kcat,[2]; FAD substrate ring D,0.151 ± 0.0127 s⁻¹
same,kcat/Km,[2]; FAD substrate ring D,50200 M⁻¹ s⁻¹
human protoporphyrinogen IX oxidase (hPPO) (Homo sapiens; L334V) (protein) MGRTVVVLGGGISGLAASYHLSRAPCPPKVVLVESSERLGGWIRSVRGPNGAIFELGPRGIRPAGALGARTLLLVSELGLDSEVLPVRGDHPAAQNRFLYVGGALHALPTGLRGLLRPSPPFSKPLFWAGLRELTKPRGKEPDETVHSFAQRRLGPEVASLAMDSLCRGVFAGNSRELSIRSCFPSLFQAEQTHRSILLGLLLGAGRTPQPDSALIRQALAERWSQWSLRGGLEMLPQALETHLTSRGVSVLRGQPVCGLSLQAEGRWKVSLRDSSLEADHVISAIPASVLSELLPAEAAPLARALSAITAVSVAVVNLQYQGAHLPVQGFGHVVPSSEDPGVLGIVYDSVAFPEQDGSPPGLRVTVMLGGSWLQTLEASGCVLSQELFQQRAQEAAATQLGLKEMPSHCLVHLHKNCIPQYTLGHWQKLESARQFLTAHRLPLTLAGASYEGVAVNDCIESGRQAAVSVLGTEPNS,Km,[2]; FAD substrate ring D,7.08 µM
same,kcat,[2]; FAD substrate ring D,0.853 ± 0.103 s⁻¹
same,kcat/Km,[2]; FAD substrate ring D,120000 M⁻¹ s⁻¹
human protoporphyrinogen IX oxidase (hPPO) (Homo sapiens; R168S) (protein) MGRTVVVLGGGISGLAASYHLSRAPCPPKVVLVESSERLGGWIRSVRGPNGAIFELGPRGIRPAGALGARTLLLVSELGLDSEVLPVRGDHPAAQNRFLYVGGALHALPTGLRGLLRPSPPFSKPLFWAGLRELTKPRGKEPDETVHSFAQRRLGPEVASLAMDSLCSGVFAGNSRELSIRSCFPSLFQAEQTHRSILLGLLLGAGRTPQPDSALIRQALAERWSQWSLRGGLEMLPQALETHLTSRGVSVLRGQPVCGLSLQAEGRWKVSLRDSSLEADHVISAIPASVLSELLPAEAAPLARALSAITAVSVAVVNLQYQGAHLPVQGFGHLVPSSEDPGVLGIVYDSVAFPEQDGSPPGLRVTVMLGGSWLQTLEASGCVLSQELFQQRAQEAAATQLGLKEMPSHCLVHLHKNCIPQYTLGHWQKLESARQFLTAHRLPLTLAGASYEGVAVNDCIESGRQAAVSVLGTEPNS,Km,[2]; FAD substrate ring A,11.33 µM
same,kcat,[2]; FAD substrate ring A,0.0553 ± 0.00367 s⁻¹
same,kcat/Km,[2]; FAD substrate ring A,4830 M⁻¹ s⁻¹
human protoporphyrinogen IX oxidase (hPPO) (Homo sapiens; G169A) (protein) MGRTVVVLGGGISGLAASYHLSRAPCPPKVVLVESSERLGGWIRSVRGPNGAIFELGPRGIRPAGALGARTLLLVSELGLDSEVLPVRGDHPAAQNRFLYVGGALHALPTGLRGLLRPSPPFSKPLFWAGLRELTKPRGKEPDETVHSFAQRRLGPEVASLAMDSLCRAVFAGNSRELSIRSCFPSLFQAEQTHRSILLGLLLGAGRTPQPDSALIRQALAERWSQWSLRGGLEMLPQALETHLTSRGVSVLRGQPVCGLSLQAEGRWKVSLRDSSLEADHVISAIPASVLSELLPAEAAPLARALSAITAVSVAVVNLQYQGAHLPVQGFGHLVPSSEDPGVLGIVYDSVAFPEQDGSPPGLRVTVMLGGSWLQTLEASGCVLSQELFQQRAQEAAATQLGLKEMPSHCLVHLHKNCIPQYTLGHWQKLESARQFLTAHRLPLTLAGASYEGVAVNDCIESGRQAAVSVLGTEPNS,Km,[2]; FAD substrate ring C,2.16 µM
same,kcat,[2]; FAD substrate ring C,0.00617 ± 0.000667 s⁻¹
same,kcat/Km,[2]; FAD substrate ring C,2830 M⁻¹ s⁻¹
human protoporphyrinogen IX oxidase (hPPO) (Homo sapiens; F331A) (protein) MGRTVVVLGGGISGLAASYHLSRAPCPPKVVLVESSERLGGWIRSVRGPNGAIFELGPRGIRPAGALGARTLLLVSELGLDSEVLPVRGDHPAAQNRFLYVGGALHALPTGLRGLLRPSPPFSKPLFWAGLRELTKPRGKEPDETVHSFAQRRLGPEVASLAMDSLCRGVFAGNSRELSIRSCFPSLFQAEQTHRSILLGLLLGAGRTPQPDSALIRQALAERWSQWSLRGGLEMLPQALETHLTSRGVSVLRGQPVCGLSLQAEGRWKVSLRDSSLEADHVISAIPASVLSELLPAEAAPLARALSAITAVSVAVVNLQYQGAHLPVQGAGHLVPSSEDPGVLGIVYDSVAFPEQDGSPPGLRVTVMLGGSWLQTLEASGCVLSQELFQQRAQEAAATQLGLKEMPSHCLVHLHKNCIPQYTLGHWQKLESARQFLTAHRLPLTLAGASYEGVAVNDCIESGRQAAVSVLGTEPNS,Km,[2]; FAD substrate ring D,6.60 µM
same,kcat,[2]; FAD substrate ring D,0.0727 ± 0.0065 s⁻¹
same,kcat/Km,[2]; FAD substrate ring D,11000 M⁻¹ s⁻¹
human protoporphyrinogen IX oxidase (hPPO) (Homo sapiens; V170T) (protein) MGRTVVVLGGGISGLAASYHLSRAPCPPKVVLVESSERLGGWIRSVRGPNGAIFELGPRGIRPAGALGARTLLLVSELGLDSEVLPVRGDHPAAQNRFLYVGGALHALPTGLRGLLRPSPPFSKPLFWAGLRELTKPRGKEPDETVHSFAQRRLGPEVASLAMDSLCRGTFAGNSRELSIRSCFPSLFQAEQTHRSILLGLLLGAGRTPQPDSALIRQALAERWSQWSLRGGLEMLPQALETHLTSRGVSVLRGQPVCGLSLQAEGRWKVSLRDSSLEADHVISAIPASVLSELLPAEAAPLARALSAITAVSVAVVNLQYQGAHLPVQGFGHLVPSSEDPGVLGIVYDSVAFPEQDGSPPGLRVTVMLGGSWLQTLEASGCVLSQELFQQRAQEAAATQLGLKEMPSHCLVHLHKNCIPQYTLGHWQKLESARQFLTAHRLPLTLAGASYEGVAVNDCIESGRQAAVSVLGTEPNS,Km,[2]; FAD substrate ring B,2.97 µM
same,kcat,[2]; FAD substrate ring B,0.128 ± 0.011 s⁻¹
same,kcat/Km,[2]; FAD substrate ring B,43200 M⁻¹ s⁻¹
human protoporphyrinogen IX oxidase (hPPO) (Homo sapiens; M368K) (protein) MGRTVVVLGGGISGLAASYHLSRAPCPPKVVLVESSERLGGWIRSVRGPNGAIFELGPRGIRPAGALGARTLLLVSELGLDSEVLPVRGDHPAAQNRFLYVGGALHALPTGLRGLLRPSPPFSKPLFWAGLRELTKPRGKEPDETVHSFAQRRLGPEVASLAMDSLCRGVFAGNSRELSIRSCFPSLFQAEQTHRSILLGLLLGAGRTPQPDSALIRQALAERWSQWSLRGGLEMLPQALETHLTSRGVSVLRGQPVCGLSLQAEGRWKVSLRDSSLEADHVISAIPASVLSELLPAEAAPLARALSAITAVSVAVVNLQYQGAHLPVQGFGHLVPSSEDPGVLGIVYDSVAFPEQDGSPPGLRVTVKLGGSWLQTLEASGCVLSQELFQQRAQEAAATQLGLKEMPSHCLVHLHKNCIPQYTLGHWQKLESARQFLTAHRLPLTLAGASYEGVAVNDCIESGRQAAVSVLGTEPNS,Km,[2]; FAD substrate ring A,5.63 µM
same,kcat,[2]; FAD substrate ring A,0.236 ± 0.0183 s⁻¹
same,kcat/Km,[2]; FAD substrate ring A,42000 M⁻¹ s⁻¹
